assay: label from the status in PepcDB records

Sequence | protein production
MSIGLSLTFGLYLLVLVGIGVYFFLRTETRRLTDYMLAGRDVGTWPLALSEVASVASGWTFFAWVGVGFTTGLHGLWFSMAMLVVVLFLYRYVAPTFRRQSEALDSQTVVDHLALVFRDSPWGPRIRWTATLAVVVFMASYIGAQIIAVGEAMETGLGLNYAVSVGAGGLAVALYTTLGGFDASVWTDFVQGLLVILAALALPLVAIAEIGGWGAFVTAVRAADPTLLSMTAGQTGTALALSVGSWLAFALGALGQPHGLMRFQAIRSERLLSRASVIALAFQALRLTVPLFIGMAGRVLYGSMNDPESAAMEMMVQLFPDWFAGLLLAGIIGAVLSTSDSMMLVTSADLTRLYETQLAGGVLPARMIRLGRGIVGVMALLGVGLAYWRPGTIFDIIEFAFVGLGATLGLPLAFLVLWPRTTGAGVFAAVAAGLGSAVGNLYLSPATFPILVWPITLTAFLGASYATAPSSPVTASSS | failed
MSIIAFLSYVIMTSITPGPSNILMMNEAQRFGFTGSWRFSSGILAGFAVLGILSGAFTISLYNWIPVVEPYFKLAGACYLIYLALQVGFTKNKKQDSTEARSSFISGFIFQLINIKSILFFLTVMSAFVLPFNHSLKSTIYYLALAIVLGWLALLLWSGFGSVFKRVFAKHDRVFRVLMCLLLMYSAVSIFR | failed
MSIISLDTRVKVGNTDYALSELFELVDQQTSDYGTSLNALKQAVVSGDLTIIQQVLQNSAAALRSLASLQNTLEKVLTLDLADPAQPEHVFIVEDSRGATELKLYKSHYTIGKADSCDIRLHSIYASRQHATLVRFLTENGEVRYRLIDGDPETSRRSANGTYVNNRSITECDLKHYDQILFGADVKATYFYLSPQFRSLTGLQDPTVSLSPDSTTEFEA | failed
MSILDTLKTPVIVAPMAGGPSTPALVNAAAEAGSLGFLAGGVMPLEQLKQELSEVKGVFGVNLFRPQTDAPKPSDIDELAGLLSSAFRQFGLDEPTVPTPDLSNGWEAKFEAVLAAKPAVFSCTFGIFSAEEFARIKATGIEAWVTVTNPEDALAAQKAGANALVVQGPEAGGHRSTWSIEVEPDERDLKTLLAAVKQAGVYLPLIAAGGLSTSADVAAILEAGASAASCGSAFLLSDEAGTSSLNREILDAAPALGLESVSSRAFSGRYARGVETRFTRSNEGLPPLYPYLNPMITSLRKVAGSAGNWDYAYCLVGVGLESIAKGSAKQILESLTPSALG | failed
MSILVIGANGGVGSKLVSQLNEEHVDFTAGVRKEDQVKELENKGIKATLIDVEKNSINDLKNIFTDYDKVIFSVGSGGSTGADKTIIVDLDGAVKTIKASKEAGIKHYVMVSTYDSRREAFDASGDLKPYTIAKHYADDYLRTSDLNYTIVHPGSLTDDAGTGKIEADLYFDKAGSIPREDVATVLKEVVTSDGFNNQEFQILSGNHGVKDALKNYESLEHHHHHH | not failed
MSINTKENIDAIFEKLESFLKSKTVIGEPIKIGETTIIPFIDITFGLGTGGGGGKDEKGNDGTGSGAGAGAKISATAVLVIKGEQVELLPIKKAGGLEKLLDMVPELEHHHHHH | not failed
MSIRIKLPDGSVREFEEEASIEDVAASISCGLEHAVAGKLNGKLVDLSTPLQDGALVEIVTRDSAEGQKIVREKSRGKGRIVALDAARGLAVIGMYLQHFALNETNGSIVSGNTTLLFVLCGGISYSIMAGRMMDRGMEPAAFRTRMLARAVFIDMIGYLLIMLNTPFGVILPAYAALFVLALVLIRRSTRVLVTTAAVLLAVSPPLMILGGSVLSGANLLGDIAGGPMSALALAPAFVAGMAIGRFDLTRMRTALSLVSSGAVMLIVSKLLGVFVLPWLSRSFEEWLVSVQGTAGAEPDQYAIWPHNVAPPLWHNLLSIAPHSASTFQTMLGLGAAFLVLGMVCLVPQKISAVLKPFAGVGRVALTMYAAQFVVIWALEISGAKYDIGAIPFGDLFVAAVATVTGWLIARLPTGPLETAMRRFDRAFSNLGPVTGPARLR | failed
MSITYSAISFSGFSPKSVPFAIHSVTRRQFLNPNTFYRFGFSPSLQGSSIEFSLQLNSRVVLSKERRSLPLVVRNDRPQNEDLPKQYTRREKKPFPVPIVDLRRAARERVKNNKDKPKRPLPPPKNGMVVKSLVPLAYKVYNARIRLINNLHRLMKVVRVNACGWCNEIHVGPYGHPFKSCKGPNTSQRKGLHEWTNSVIEDVIVPLEAYHLFDRLGKRIRHDERFSIPRVPAVVELCIQGGVEIPEFPAKRRRKPIIRIGKSEFVDADETELPDPEPQPPPVPLLTELPVSEITPPSSEEETVSLAEETLQAWEEMRAGAKKLMRMYRVRVCGYCPEVHVGPTGHKAQNCGAFKHQQRNGQHGWQSAVLDDLIPPRYVWHVPDVNGPPMQRELRSFYGQAPAVVEICAQAGAVVPEHYRATMRLEVGIPSSVKEAEMVV | failed
MSIYDPNPDQSLARIDALEKELANLKASHNTLDIQNKILKGFISLTNVSAGRMLIKATLQKTMEASIHQTGAQLGSLFLLDGDGRVTESILARGATDQSQKKNIVGQVLDKGLAGWVRENKRTGLINDTTKDYRWLKLPDEPYQALSALGVPIVWGDELLGILTLMHSQVNHFTPACATAMEKTAELIALVLNNARIQTKHKQNETLIQQEDDLLNQAILWFPSIIFILDNQGVLLKCGGKYLAQIGLDPKESIGKSIYYLLPEANELKSLTSHALANNIIESVSVQMERVDHGTWFYDAWFSPILDNHGQVSNVVCMLLPA | failed
MSKCGVRARLLGLCTERASAWAMALIALVAGGLLTAALAFAAHTFYKQQLRQRFELLASERASRIAERFDEQQQRLDGLRRFFSFSSEITPREFDGYARPLLQRTLAYAWAPRVEAAQRAEFERLASAHTGPGYVIRDQDAQGQWRPASQRDHYFPVLYTQSSERPGLPYGLDLAGQSEPQAALARALAPALAPGSMAVSEPLALFDTQSAERGLLMVAPVFSDADPRGAAVGYVMALLSMRELVSDGRPVAVDDNLVVRITDPSGLQGPVVLFDSQNPVAPLALASNQLLRLADHHFQLSIQPSQAFAQANRSSAVMAVGLLGGLLSLLLSVLLYSLFSQRQRALALVAQRTAELQVSEQSLRGTHNQLRSVLDAATQVAIIATNLKGVVSTFNAGAERMLGYAASEAIGRLRLEDLVLPEELNLRAQALSLRFGRAIAGGQAMFAETVQEHGAEPGEWTLLRADGSQLVANMLVTAMLDEQGLWVGYLAICIDVTERRRVHEALAARDRLLEKLSAEVPGGIYQYRLDANGHSCFPYASMGLYDIYEIDLMQLREDASAVFERIHPDDLERVRRSVRYSAEHLSPWREEYRVCLPRAGLRWVRGEATPEVGEQGCTLWHGYLTDISDLKGVEEELRALSVTDSLTGIHNRRYFQERLKIELERAQRDGLPLAVIMLDIDHFKRINDRFGHAVGDRVLRSLCQRIAQRLRRTDVFCRLGGEEFMVLCPGSDANQARLLALELWQGVRNVPVEGVGQVTASFGVAGWRSGEGADALLLRADAGVYAAKQAGRDRVEGEPV | failed
MSKEDAWNMVTIYPAKQLRVDEYVGSLTPGKMADIVLWNAEPLSIYAKVTHAWVEGKRYFDREQDQLAQLEHHHHHH | failed
MSKEPIIKLDNIDVTFHQKKREINAVKDVTIHINQGDIYGIVGYSGAGKSTLVRVINLLQEPSAGKITIDDQVIYDNKVTLTSTQLREQRREIGMIFQHFNLMSQLTAEQNVAFALKHSGLSKEAKAAKVAKLLELVGLSDRAQNYPSQLSGGQKQRVAIARALANDPKILISDESTSALDPKTTKQILALLQDLNKKLGLTIVLITHEMQIVKDIANRVAVMQNGKLIEEGSVLDIFSHPRESLTQDFIKIATGIDEAMLKIEQQEVVKNLPVGSKLVQLKYAGHSTDEPLLNQIYKEFEVTANILYGNIEILDGIPVGEMVVILSGDEEKLRQACQAITDSQVQLTLLKEGGKA | failed
MSKFDGYFLRQLLVLCGFFAFVLVGVFWISKAVSLFDRLISSGQTAMVALEFTALTLPTLVRTVMPMAAFCATVYVTNRLNRESEMTVMLATGSSPFRLARPVILFGLVCAAMLATITLYLRPAAMLRLEARQAEVAGDMTAQLLNDGQFMHPVKGVTVYIGKIDRDGTLNDVYLSDRRAPERVVTYTSSKAFLARSGEQIALVMVEGTALQMETGRRTLSTTVFRDFSYDISALAKRDIERRQDIRGMPTLALATAFDGEGLAETYSRGEISEELQERLSWIGVSVAVTLIGFSTLMLGTFSRFGLWPQLIAAFAGLIALEGMRSTATAFVGSHPGLWWVQHAPALGGIALSILFLKLAGRPLRLRRYPDTGSV | failed
MSKHLCFTAFSSIALFLLCFSSWASAVAPAEINEARLVAQYNYSINILAMLLVGFGFLMVFVRRYGFSATTGTYLVVATGLPLYILLRANGIFGHALTPHSVDAVIYAEFAVATGLIAMGAVLGRLRVFQYALLALFIVPVYLLNEWLVLDNASGLTEGFQDSAGSIAIHAFGAYFGLGVSIALTTAAQRAQPIESDATSDRFSMLGSMVLWLFWPSFATAIVPFEQMPQTIVNTLLALCGATLATYFLSALFHKGKASIVDMANAALAGGVAIGSVCNIVGPVGAFVIGLLGGAISVVGFVFIQPMLESKAKTIDTCGVHNLHGLPGLLGGFSAILIVPGIAVAQLTGIGITLALALIGGVIAGALIKLTGTTKQAYEDSHEFIHLAGPEDEHKAERLVLEAKTEIQGLKNRIDAAVLSAKSEG | not failed
MSKIADDQNFNDEEENFAKLFKKELEKEETLEKGTIKEGLVVSINENDGYAMVSVGGKTEGRLALNEITDEKGQLLYQKNDPIIVHVSEKGEHPSVSYKKAISQQKIQAKIEELGENYENAIIEGKIVGKNKGGYIVESQGVEYFLSRSHSSLKNDANHIGKRVKACIIRVDKENHSINISRKRFFEVNDKRQLEVSKELLEATEPVLGVVRQITPFGIFVEAKGIEGLVHYSEISHKGPVNPEKYYKEGDEVYVKAIAYDAEKRRLSLSIKATIEDPWEEIQDKLKPGYAIKVVVSNIEHYGVFVDIGNDIEGFLHVSEISWDKNVSHPNNYLSVGQEIDVKIIDIDPKNRRLRVSLKQLTNRPFDVFESKHQVGDVLEGKVATLTDFGAFLNLGGVDGLLHNHDAFWDKDKKCKDHYKIGDVIKVKILKINKKDKKISLSAKHLVTSPTEEFAQKHKTDSVIQGKVVSIKDFGVFINADGIDVLIKNEDLNPLKKDEIKIGQEITCVVVAIEKSNNKVRASVHRLERKKEKEELQAFNTSDDKMTLGDILKEKL | failed
MSKICQITGKKAMVGNNVSHSKRRTKRVFDVNLFRKKFYWVEQDCWVVLRISAAGLRLINKIGLDAAIKRAAEKGFLNALEHHHHHH | not failed
MSKKQKSKYIVIFGCGRLGSLIANLASSSGHSVVVVDKNEYAFHRLNSEFSGFTVVGDAAEFETLKECGMEKADMVFAFTNDDSTNFFISMNARYMFNVENVIARVYDPEKIKIFEENGIKTICPAVLMIEKVKEFIIGSEED | not failed
MSKKTDVVKEYTRIDSKRGLSITTGANRMKLFDRRVLELGRGEYGKLWNVIILGLLISFSYIVQGLLIAVILNGVFAGTPLHESRLYFAAVALLIVLRWIMIRENDRIAARTASNIAMSLRRRMYHKLYELGPGWIMTQKSGVIQATLVDGAEALQNYYGRFLPQVVVSIAAGISIVAILFYVDMTIGLVIGGMMIAALIQPLAIYKGVGKGIRIWFVAMPRLFAEYVDNIQGIVTLKSFNASQRQGKILYQRTNDLYDAEIGILRDEILWSVPPGLVAAICGTVAIIIGAIRMDAGALSAAGLLFVLLLVREALRPVTDLRQTIHFSFSGMGAAEGVLDILEATPLAAVTARPTPSSIPHSFAFEDVTFRYRKTDASAVENLSFKVEPGDKVALVGRSGSGKTTVTSLLMRYFDPQAGIIRLGGEDIRHIPADELHAMYSIVSQDTFLFHGTVRDNLLMAKPEASQEELERAARAAAAHKFIATLPDSYDTLIGERGVRLSGGERQRIAIARAILKDAPILILDEATSSVDVANETLIREAIAGLAHDRTTLLISHRLSAVRDADRIYVLEKGRLMEAGTHSKLVGCNGNYSALVRAEEECI | failed
MSKLAQIVQKLKKQGIEAAVLSDPVSINYLTGFYSDPHERLMFLFLFADQEPLLFLPELDALRAKSILDISVTGYLDFENPLEKIKTLLPKTNYSKIALEFDNLNVTKFKGLETIFSGQFTNLTPLINRMR | not failed

Source: a protein production outcome set (Wang et al. 2014)
